In patent publication US20230357857, “NUCLEIC ACID NANOSTRUCTURES WITH TUNABLE FUNCTIONAL STABILITY” (National University of Singapore, published 2023):

Molecular target: Taq DNA polymerase (UniProt P19821 P19821:1-832)
Experiment: inhibition; >80% signal with target; 1.5 mM MgCl2
Details: tags: Promega; partial duplex plus stabilizer hairpin

Sequence of Taq DNA polymerase (P19821 whole entry, one chain of several): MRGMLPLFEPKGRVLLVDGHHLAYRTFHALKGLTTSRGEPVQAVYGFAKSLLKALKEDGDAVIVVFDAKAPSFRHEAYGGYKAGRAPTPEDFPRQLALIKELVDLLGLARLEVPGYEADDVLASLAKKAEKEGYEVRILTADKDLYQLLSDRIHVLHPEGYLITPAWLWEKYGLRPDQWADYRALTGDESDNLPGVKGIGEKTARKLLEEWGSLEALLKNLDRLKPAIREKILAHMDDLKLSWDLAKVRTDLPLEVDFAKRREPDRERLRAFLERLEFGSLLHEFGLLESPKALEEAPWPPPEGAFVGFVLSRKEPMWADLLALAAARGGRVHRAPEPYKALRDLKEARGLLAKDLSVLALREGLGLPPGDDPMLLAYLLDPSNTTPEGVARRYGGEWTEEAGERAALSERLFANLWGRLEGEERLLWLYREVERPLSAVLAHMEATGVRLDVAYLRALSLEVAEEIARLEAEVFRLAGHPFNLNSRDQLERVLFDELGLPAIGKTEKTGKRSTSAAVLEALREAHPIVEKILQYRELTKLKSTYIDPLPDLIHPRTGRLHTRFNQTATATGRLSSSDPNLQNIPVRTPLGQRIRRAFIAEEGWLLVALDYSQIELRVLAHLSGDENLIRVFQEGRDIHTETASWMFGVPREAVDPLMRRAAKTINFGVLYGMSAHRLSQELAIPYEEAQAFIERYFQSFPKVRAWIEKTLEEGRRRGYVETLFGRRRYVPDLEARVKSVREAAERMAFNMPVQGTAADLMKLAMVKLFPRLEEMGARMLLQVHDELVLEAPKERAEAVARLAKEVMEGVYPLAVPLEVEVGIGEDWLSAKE

Binder	activity [% signal without target]
miR-223-5p Aptamer + miR-223 specific strand (dsDNA) DNA 1: ACAAGCTGAGTTCGCCAATGTACAGTATTGGCG DNA 2: AACTCAGCTTGTCAAATA	< 10
NEAT1 Aptamer + NEAT1 specific strand (dsDNA) DNA 1: TTAGCGCCAAACTAGCAATGTACAGTATTGCTA DNA 2: GTTTGGCGCTAAACTCTT	< 10
hnRNPA2B1 Aptamer + hnRNPA2B1 specific strand (dsDNA) DNA 1: TGCCTATCAGTATGACCAATGTACAGTATTGGTCA DNA 2: TACTGATAGGCAGTCTGG	< 10
miR-1827 Aptamer + miR-1827 specific strand (dsDNA) DNA 1: AGTAGATTGAATCGGACAATGTACAGTATTGTCCG DNA 2: ATTCAATCTACTGCCTCA	< 10
ACTB Aptamer + ACTB specific strand (dsDNA) DNA 1: ACGCAACTAAGTGACCAATGTACAGTATTGGTC DNA 2: ACTTAGTTGCGTTACACC	< 10
GAPDH Aptamer + GAPDH specific strand (dsDNA) DNA 1: TTCTCAAGACGGAATCAATGTACAGTATTGATT DNA 2: CCGTCTTGAGAAACCTGC	< 10
PCGEM1 Aptamer + PCGEM1 specific strand (dsDNA) DNA 1: CCTCAGAAATCTCGGCAATGTACAGTATTGCCG DNA 2: AGATTTCTGAGGGGAATT	< 10
GAS5 Aptamer + GAS5 specific strand (dsDNA) DNA 1: TGTCTTCATGTCTAGCCAATGTACAGTATTGGCTA DNA 2: GACATGAAGACAGTTCCT	< 10
